In test [1] the target is HLA-A*26:01. In words: IEDB peptide-MHC binding, purified MHC/competitive/radioactivity; filed as Kd, often an IC50 or EC50 that approximates it; ≥ and ≤ were set here for values at or beyond the usual limits of such assays.
The target of test [2] is HLA-A*24:02. The test is described as above.
Test [3] deals with HLA-A*29:02. The test is described as above.
The target in test [4] is HLA-A*23:01. Described as above.
The target of test [5] is HLA-A*30:02. Described as above.
Test [6] concerns the target HLA-A*01:01. The test is described as above.
Test [7] concerns the target HLA-A*02:02. The test is described as above. The following applies: source organism: SARS coronavirus Tor2.
Test [8] deals with HLA-A*02:03. The description is as above.
The target of test [9] is HLA-A*02:06. The test is described as above. As to conditions: source organism: SARS coronavirus Tor2.
Test [10] has as its target HLA-B*51:01. Described as above. The following applies: source organism: Dengue virus 4 Philippines/H241/1956.
Test [11] has as its target HLA-A*26:01. Description: IEDB peptide-MHC binding, purified MHC/direct/fluorescence; filed as Kd, often an IC50 or EC50 that approximates it; ≥ and ≤ were set here for values at or beyond the usual limits of such assays. As to conditions: source organism: Mycobacterium avium 104.
Test [12] has as its target HLA-A*01:01. The test is described as above.
Test [13] concerns the target HLA-B*07:02. Description: IEDB peptide-MHC binding, purified MHC/competitive/radioactivity; filed as Kd, often an IC50 or EC50 that approximates it; ≥ and ≤ were set here for values at or beyond the usual limits of such assays. The following applies: source organism: Dengue virus 2 Jamaica/1409/1983.
In test [14] the target is HLA-A*03:01. In words: IEDB peptide-MHC binding, purified MHC/direct/fluorescence; filed as Kd, often an IC50 or EC50 that approximates it; ≥ and ≤ were set here for values at or beyond the usual limits of such assays. The following applies: source organism: SARS-CoV1.
Test [15] addresses HLA-B*15:01. The description is as above. The following applies: source organism: SARS-CoV1.
Test [16] deals with HLA-A*11:01. Described as above. The following applies: source organism: SARS-CoV1.
Test [17] addresses HLA-B*58:01. Described as above. As to conditions: source organism: SARS-CoV1.
Setting [18] is: source organism: SARS coronavirus Tor2.
The mark [19] stands for this setting: source organism: Mammarenavirus brazilense.

pKd: −log10 of the molar value.

Consider 15 sequences from the Immune Epitope Database (IEDB).

What is called pKd is the negative decadic logarithm of the Kd, by convention in mol/L.

On to CTLSEQLDY, for which the pKd in test [1] (setting [18]) was 6.07; in test [2] (setting [18]) it was not above 4.11; in test [3] (setting [18]), 8.98; in test [4] (setting [18]), not above 4.11; in test [5] (setting [18]), 7.56; in [6] (setting [18]), 8.07.

For AFEKMVSLL, the pKd in test [1] (setting [18]) was not above 4.13; in test [2] (setting [18]), 4.94; in test [3] (setting [18]) it was not above 4.56; in test [4] (setting [18]) it was 5.08; in test [5] (setting [18]) it was not above 4.09; in test [6] (setting [18]), not above 4.11.

LIDLQELGKY: the pKd in [1] (setting [18]) was 5.99; in test [2] (setting [18]), not above 4.15; in test [3] (setting [18]), 5.55; in [4] (setting [18]) it was not above 4.15; in [5] (setting [18]), 7.41; in test [6] (setting [18]), 6.94.

In the case of QSDTVFDHY, the negative-log Kd (pKd) was not above 4.11 in test [1] (source organism: Variola virus); not above 4.11 in test [2] (source organism: Variola virus); not above 4.42 in [3] (source organism: Variola virus); not above 4.11 in test [4] (source organism: Variola virus); 4.92 in test [5] (source organism: Variola virus); 8.02 in test [6] (source organism: Variola virus).

As to SSQGSEYDY, the pKd in test [1] (setting [18]) was not above 3.99; in [2] (setting [18]), not above 4.11; in test [3] (setting [18]), 6.53; in test [4] (setting [18]) it was not above 4.11; in test [5] (setting [18]) it was 7.16; in [6] (setting [18]) it was 6.24.

On to YQCGHYTHI, for which the pKd in test [1] (setting [18]) is 4.88; in [7], 7.14; in test [2] (setting [18]), 6.94; in test [3] (setting [18]), not above 4.60; in test [8] (setting [18]), 7.83; in test [4] (setting [18]), 6.51. Besides, the negative logarithm of the Kd (pKd) in test [5] (setting [18]) was 4.96; in [9], 8.03; in test [6] (setting [18]), not above 4.70.

FLFFMQGKGI: the pKd was not above 4.34 in [10] and 8.42 in [8] (source organism: Dengue virus 4 Philippines/H241/1956).

Consider LTVTLVWLY, for which the results for the negative logarithm of the Kd (pKd) in [11] and in [12] (source organism: Mycobacterium avium 104) were 8.57 and not above 4.70, respectively.

Take ICSSVLKRY: the pKd is not above 4.11 in test [1] (setting [19]); 4.81 in test [2] (setting [19]); not above 4.30 in [3] (setting [19]); 4.84 in test [4] (setting [19]); 6.52 in [5] (setting [19]); 6.33 in [6] (setting [19]).

RPTFAAGLL: the pKd in [13] is 8.96.

Take AWPLIVTAL: the pKd in test [1] (setting [18]) is 4.75; in test [2] (setting [18]), not above 4.11; in test [3] (setting [18]) it was not above 4.12; in test [4] (setting [18]) it was not above 4.31; in [5] (setting [18]), not above 4.42; in test [6] (setting [18]), not above 4.64.

On to GYLKPTTFM, for which the negative logarithm of the Kd (pKd) in [1] (setting [18]) was not above 4.11; in test [2] (setting [18]), 4.91; in test [3] (setting [18]), 6.27; in [4] (setting [18]), 5.60; in test [5] (setting [18]) it was 5.17; in [6] (setting [18]), not above 4.11.

Take DPRRCMKPV: the pKd in test [13] was 6.86.

TSNPKTPKY: the negative-log Kd (pKd) was 5.91 in [14]; 6.41 in test [15]; 5.35 in test [12] (source organism: SARS-CoV1); 4.85 in test [16]; 6.67 in test [17]; not above 4.25 in [1] (setting [18]). The negative logarithm of the Kd (pKd) is not above 4.11 in test [2] (setting [18]), 6.26 in test [3] (setting [18]), not above 4.11 in [4] (setting [18]) and 9.64 in test [5] (setting [18]).

VWTLMNVITL: the pKd in test [1] (setting [18]) was 5.82; in test [2] (setting [18]) it was 6.73; in [3] (setting [18]), 7.14; in [4] (setting [18]) it was 7.21; in [5] (setting [18]), 4.71; in test [6] (setting [18]) it was 5.57.
